IC50 data for 7 molecules are collected here from US20140087995A1 (published 2014).

Broadly, the IC50 is the point on the concentration scale where inhibition reaches its midpoint.

T1: human amylin receptor (human, UniProt P30988 25-474; O60896 24-148, limits assumed)
T1 construct: whole, on cells; Calcitonin receptor plus RAMP-3 gives the amylin 3(a) receptor; membranes of Amylin 3(a)/CRE-luc cells were used; also called hAmylin-R; hAmylinR
T1 sequence (looked up) 1: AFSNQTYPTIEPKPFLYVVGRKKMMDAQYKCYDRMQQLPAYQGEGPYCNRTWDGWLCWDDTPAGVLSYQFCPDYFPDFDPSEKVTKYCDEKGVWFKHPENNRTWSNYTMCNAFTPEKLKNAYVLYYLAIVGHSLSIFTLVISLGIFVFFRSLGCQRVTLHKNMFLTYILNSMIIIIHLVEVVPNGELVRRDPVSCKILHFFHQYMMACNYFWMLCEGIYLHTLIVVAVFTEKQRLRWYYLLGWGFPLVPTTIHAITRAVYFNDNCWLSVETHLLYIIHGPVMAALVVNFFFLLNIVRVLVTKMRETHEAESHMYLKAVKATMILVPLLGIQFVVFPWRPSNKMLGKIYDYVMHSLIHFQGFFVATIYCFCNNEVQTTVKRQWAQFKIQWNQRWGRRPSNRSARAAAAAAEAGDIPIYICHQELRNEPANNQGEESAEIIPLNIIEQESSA
T1 sequence (looked up) 2: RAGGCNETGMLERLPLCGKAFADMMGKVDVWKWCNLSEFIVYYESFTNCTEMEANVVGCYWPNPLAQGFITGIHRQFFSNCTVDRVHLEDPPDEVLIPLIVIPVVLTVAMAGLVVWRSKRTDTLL

B1: N^ε1-[(4S)-4-carboxy-4-[[(4S)-4-carboxy-4-(19-carboxynonadecanoylamino)butanoyl]amino]butanoyl]-[Glu14,Arg17,Pro21,Pro27,Arg34]-h-amylin (peptide)
peptide: K([γGlu-γGlu-C20 diacid])CNTATCATQRLAEFLRHSSPNFGAIPSSTNVGRNTY-NH2
modifications: disulfide 2-7; N-terminus assumed
SMILES: CC[C@H](C)[C@H](NC(=O)[C@H](C)NC(=O)CNC(=O)[C@H](Cc1ccccc1)NC(=O)[C@H](CC(N)=O)NC(=O)[C@@H]1CCCN1C(=O)[C@H](CO)NC(=O)[C@H](CO)NC(=O)[C@H](Cc1c[nH]cn1)NC(=O)[C@H](CCCNC(=N)N)NC(=O)[C@H](CC(C)C)NC(=O)[C@H](Cc1ccccc1)NC(=O)[C@H](CCC(=O)O)NC(=O)[C@H](C)NC(=O)[C@H](CC(C)C)NC(=O)[C@H](CCCNC(=N)N)NC(=O)[C@H](CCC(N)=O)NC(=O)[C@@H](NC(=O)[C@H](C)NC(=O)[C@@H]1CSSC[C@H](NC(=O)[C@@H](N)CCCCNC(=O)CC[C@H](NC(=O)CC[C@H](NC(=O)CCCCCCCCCCCCCCCCCCC(=O)O)C(=O)O)C(=O)O)C(=O)N[C@@H](CC(N)=O)C(=O)N[C@@H]([C@@H](C)O)C(=O)N[C@@H](C)C(=O)N[C@@H]([C@@H](C)O)C(=O)N1)[C@@H](C)O)C(=O)N1CCC[C@H]1C(=O)N[C@@H](CO)C(=O)N[C@@H](CO)C(=O)N[C@H](C(=O)N[C@@H](CC(N)=O)C(=O)N[C@H](C(=O)NCC(=O)N[C@@H](CCCNC(=N)N)C(=O)N[C@@H](CC(N)=O)C(=O)N[C@H](C(=O)N[C@@H](Cc1ccc(O)cc1)C(N)=O)[C@@H](C)O)C(C)C)[C@@H](C)O
notes: also called 14E, 17R, 21P, 27P, 34R
B2: N^ε1-[(4S)-4-carboxy-4-[[(4S)-4-carboxy-4-(19-carboxynonadecanoylamino)butanoyl]amino]butanoyl]-[Glu14,Arg17,Pro21,Pro27,Pro34,Arg35]-h-amylin (peptide)
peptide: K([γGlu-γGlu-C20 diacid])CNTATCATQRLAEFLRHSSPNFGAIPSSTNVGPRTY-NH2
modifications: disulfide 2-7; N-terminus assumed
SMILES: CC[C@H](C)[C@H](NC(=O)[C@H](C)NC(=O)CNC(=O)[C@H](Cc1ccccc1)NC(=O)[C@H](CC(N)=O)NC(=O)[C@@H]1CCCN1C(=O)[C@H](CO)NC(=O)[C@H](CO)NC(=O)[C@H](Cc1c[nH]cn1)NC(=O)[C@H](CCCNC(=N)N)NC(=O)[C@H](CC(C)C)NC(=O)[C@H](Cc1ccccc1)NC(=O)[C@H](CCC(=O)O)NC(=O)[C@H](C)NC(=O)[C@H](CC(C)C)NC(=O)[C@H](CCCNC(=N)N)NC(=O)[C@H](CCC(N)=O)NC(=O)[C@@H](NC(=O)[C@H](C)NC(=O)[C@@H]1CSSC[C@H](NC(=O)[C@@H](N)CCCCNC(=O)CC[C@H](NC(=O)CC[C@H](NC(=O)CCCCCCCCCCCCCCCCCCC(=O)O)C(=O)O)C(=O)O)C(=O)N[C@@H](CC(N)=O)C(=O)N[C@@H]([C@@H](C)O)C(=O)N[C@@H](C)C(=O)N[C@@H]([C@@H](C)O)C(=O)N1)[C@@H](C)O)C(=O)N1CCC[C@H]1C(=O)N[C@@H](CO)C(=O)N[C@@H](CO)C(=O)N[C@H](C(=O)N[C@@H](CC(N)=O)C(=O)N[C@H](C(=O)NCC(=O)N1CCC[C@H]1C(=O)N[C@@H](CCCNC(=N)N)C(=O)N[C@H](C(=O)N[C@@H](Cc1ccc(O)cc1)C(N)=O)[C@@H](C)O)C(C)C)[C@@H](C)O
notes: also called 14E, 17R, 21P, 27P, 34P, 35R
B3: N^ε1-[(4S)-4-carboxy-4-[[(4S)-4-carboxy-4-(19-carboxynonadecanoylamino)butanoyl]amino]butanoyl]-[Glu14,Arg17,Pro21,Pro27,His34]-h-amylin (peptide)
peptide: K([γGlu-γGlu-C20 diacid])CNTATCATQRLAEFLRHSSPNFGAIPSSTNVGHNTY-NH2
modifications: disulfide 2-7; N-terminus assumed
SMILES: CC[C@H](C)[C@H](NC(=O)[C@H](C)NC(=O)CNC(=O)[C@H](Cc1ccccc1)NC(=O)[C@H](CC(N)=O)NC(=O)[C@@H]1CCCN1C(=O)[C@H](CO)NC(=O)[C@H](CO)NC(=O)[C@H](Cc1c[nH]cn1)NC(=O)[C@H](CCCNC(=N)N)NC(=O)[C@H](CC(C)C)NC(=O)[C@H](Cc1ccccc1)NC(=O)[C@H](CCC(=O)O)NC(=O)[C@H](C)NC(=O)[C@H](CC(C)C)NC(=O)[C@H](CCCNC(=N)N)NC(=O)[C@H](CCC(N)=O)NC(=O)[C@@H](NC(=O)[C@H](C)NC(=O)[C@@H]1CSSC[C@H](NC(=O)[C@@H](N)CCCCNC(=O)CC[C@H](NC(=O)CC[C@H](NC(=O)CCCCCCCCCCCCCCCCCCC(=O)O)C(=O)O)C(=O)O)C(=O)N[C@@H](CC(N)=O)C(=O)N[C@@H]([C@@H](C)O)C(=O)N[C@@H](C)C(=O)N[C@@H]([C@@H](C)O)C(=O)N1)[C@@H](C)O)C(=O)N1CCC[C@H]1C(=O)N[C@@H](CO)C(=O)N[C@@H](CO)C(=O)N[C@H](C(=O)N[C@@H](CC(N)=O)C(=O)N[C@H](C(=O)NCC(=O)N[C@@H](Cc1c[nH]cn1)C(=O)N[C@@H](CC(N)=O)C(=O)N[C@H](C(=O)N[C@@H](Cc1ccc(O)cc1)C(N)=O)[C@@H](C)O)C(C)C)[C@@H](C)O
notes: also called 14E, 17R, 21P, 27P, 34H
B4: N^ε1-[(4S)-4-carboxy-4-[[(4S)-4-carboxy-4-(19-carboxynonadecanoylamino)butanoyl]amino]butanoyl]-[Glu14,Arg17,Pro21,Pro27,Pro37]-h-amylin (peptide)
peptide: K([γGlu-γGlu-C20 diacid])CNTATCATQRLAEFLRHSSPNFGAIPSSTNVGSNTP-NH2
modifications: disulfide 2-7; N-terminus assumed
SMILES: CC[C@H](C)[C@H](NC(=O)[C@H](C)NC(=O)CNC(=O)[C@H](Cc1ccccc1)NC(=O)[C@H](CC(N)=O)NC(=O)[C@@H]1CCCN1C(=O)[C@H](CO)NC(=O)[C@H](CO)NC(=O)[C@H](Cc1c[nH]cn1)NC(=O)[C@H](CCCNC(=N)N)NC(=O)[C@H](CC(C)C)NC(=O)[C@H](Cc1ccccc1)NC(=O)[C@H](CCC(=O)O)NC(=O)[C@H](C)NC(=O)[C@H](CC(C)C)NC(=O)[C@H](CCCNC(=N)N)NC(=O)[C@H](CCC(N)=O)NC(=O)[C@@H](NC(=O)[C@H](C)NC(=O)[C@@H]1CSSC[C@H](NC(=O)[C@@H](N)CCCCNC(=O)CC[C@H](NC(=O)CC[C@H](NC(=O)CCCCCCCCCCCCCCCCCCC(=O)O)C(=O)O)C(=O)O)C(=O)N[C@@H](CC(N)=O)C(=O)N[C@@H]([C@@H](C)O)C(=O)N[C@@H](C)C(=O)N[C@@H]([C@@H](C)O)C(=O)N1)[C@@H](C)O)C(=O)N1CCC[C@H]1C(=O)N[C@@H](CO)C(=O)N[C@@H](CO)C(=O)N[C@H](C(=O)N[C@@H](CC(N)=O)C(=O)N[C@H](C(=O)NCC(=O)N[C@@H](CO)C(=O)N[C@@H](CC(N)=O)C(=O)N[C@H](C(=O)N1CCC[C@H]1C(N)=O)[C@@H](C)O)C(C)C)[C@@H](C)O
notes: also called 14E, 17R, 21P, 27P, 37P
B5: N^ε1-[(4S)-4-carboxy-4-[[(4S)-4-carboxy-4-(19-carboxynonadecanoylamino)butanoyl]amino]butanoyl]-[Glu14,Arg17,Pro21,Pro31,Pro34,Glu35]-h-amylin (peptide)
peptide: K([γGlu-γGlu-C20 diacid])CNTATCATQRLAEFLRHSSPNFGAILSSTPVGPETY-NH2
modifications: disulfide 2-7 (inferred)
notes: also called 14E, 17R, 21P, 31P, 34P, 35E
B6: N^ε1-[(4S)-4-carboxy-4-[[(4S)-4-carboxy-4-(19-carboxynonadecanoylamino)butanoyl]amino]butanoyl]-[Glu14,Arg17,Pro21,Pro27,His34,Glu35]-h-amylin (peptide)
peptide: K([γGlu-γGlu-C20 diacid])CNTATCATQRLAEFLRHSSPNFGAIPSSTNVGHETY-NH2
modifications: disulfide 2-7; N-terminus assumed
SMILES: CC[C@H](C)[C@H](NC(=O)[C@H](C)NC(=O)CNC(=O)[C@H](Cc1ccccc1)NC(=O)[C@H](CC(N)=O)NC(=O)[C@@H]1CCCN1C(=O)[C@H](CO)NC(=O)[C@H](CO)NC(=O)[C@H](Cc1c[nH]cn1)NC(=O)[C@H](CCCNC(=N)N)NC(=O)[C@H](CC(C)C)NC(=O)[C@H](Cc1ccccc1)NC(=O)[C@H](CCC(=O)O)NC(=O)[C@H](C)NC(=O)[C@H](CC(C)C)NC(=O)[C@H](CCCNC(=N)N)NC(=O)[C@H](CCC(N)=O)NC(=O)[C@@H](NC(=O)[C@H](C)NC(=O)[C@@H]1CSSC[C@H](NC(=O)[C@@H](N)CCCCNC(=O)CC[C@H](NC(=O)CC[C@H](NC(=O)CCCCCCCCCCCCCCCCCCC(=O)O)C(=O)O)C(=O)O)C(=O)N[C@@H](CC(N)=O)C(=O)N[C@@H]([C@@H](C)O)C(=O)N[C@@H](C)C(=O)N[C@@H]([C@@H](C)O)C(=O)N1)[C@@H](C)O)C(=O)N1CCC[C@H]1C(=O)N[C@@H](CO)C(=O)N[C@@H](CO)C(=O)N[C@H](C(=O)N[C@@H](CC(N)=O)C(=O)N[C@H](C(=O)NCC(=O)N[C@@H](Cc1c[nH]cn1)C(=O)N[C@@H](CCC(=O)O)C(=O)N[C@H](C(=O)N[C@@H](Cc1ccc(O)cc1)C(N)=O)[C@@H](C)O)C(C)C)[C@@H](C)O
notes: also called 14E, 17R, 21P, 27P, 34H, 35E
B7: N^ε1-[(4S)-4-carboxy-4-[[(4S)-4-carboxy-4-(19-carboxynonadecanoylamino)butanoyl]amino]butanoyl]-[Glu14,Arg17,Pro21,Pro27,Pro34,Glu35]-h-amylin (peptide)
peptide: K([γGlu-γGlu-C20 diacid])CNTATCATQRLAEFLRHSSPNFGAIPSSTNVGPETY-NH2
modifications: disulfide 2-7; N-terminus assumed
SMILES: CC[C@H](C)[C@H](NC(=O)[C@H](C)NC(=O)CNC(=O)[C@H](Cc1ccccc1)NC(=O)[C@H](CC(N)=O)NC(=O)[C@@H]1CCCN1C(=O)[C@H](CO)NC(=O)[C@H](CO)NC(=O)[C@H](Cc1c[nH]cn1)NC(=O)[C@H](CCCNC(=N)N)NC(=O)[C@H](CC(C)C)NC(=O)[C@H](Cc1ccccc1)NC(=O)[C@H](CCC(=O)O)NC(=O)[C@H](C)NC(=O)[C@H](CC(C)C)NC(=O)[C@H](CCCNC(=N)N)NC(=O)[C@H](CCC(N)=O)NC(=O)[C@@H](NC(=O)[C@H](C)NC(=O)[C@@H]1CSSC[C@H](NC(=O)[C@@H](N)CCCCNC(=O)CC[C@H](NC(=O)CC[C@H](NC(=O)CCCCCCCCCCCCCCCCCCC(=O)O)C(=O)O)C(=O)O)C(=O)N[C@@H](CC(N)=O)C(=O)N[C@@H]([C@@H](C)O)C(=O)N[C@@H](C)C(=O)N[C@@H]([C@@H](C)O)C(=O)N1)[C@@H](C)O)C(=O)N1CCC[C@H]1C(=O)N[C@@H](CO)C(=O)N[C@@H](CO)C(=O)N[C@H](C(=O)N[C@@H](CC(N)=O)C(=O)N[C@H](C(=O)NCC(=O)N1CCC[C@H]1C(=O)N[C@@H](CCC(=O)O)C(=O)N[C@H](C(=O)N[C@@H](Cc1ccc(O)cc1)C(N)=O)[C@@H](C)O)C(C)C)[C@@H](C)O
notes: also called 14E, 17R, 21P, 27P, 34P, 35E

Numbered stars: 1 amine (or outer) side, 2 acyl side, 3 side chain; on linkers, the order of the positions; unused ones are H or OH. Bridge positions count the residues as written; N and C are the ends. Side chains are listed from the residue outwards. Ends that are not written are not given here. * marks the point of attachment. C20 diacid = O=C(O)CCCCCCCCCCCCCCCCCCC(=O)*; γGlu = O=C(O)[C@H](CCC(=O)[*:2])N[*:1]

The test addresses T1, human amylin receptor. Briefly: SPA competition binding, displacement of 125I-rat amylin from membranes with human amylin 3(a) receptor (Assay V). An outline of the steps: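 SPA beads with BHK Amylin 3(a)/CRE-luc cell membranes (35 ng/μL final) in 50 mM Hepes pH 7.4, 1 mM CaCl2, 5 mM MgCl₂, 0.1% OA, 0.02% Tween20.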
A general note: Displacement assays read how much labelled ligand stays bound in the presence of the test substance.
B1 returned an IC50 of 0.75 nM.

For the molecule B2, the IC50 came out at 0.326 nM.

In the case of B3, the IC50 amounted to 0.633 nM.

B4 came in with an IC50 of 0.264 nM.

Turning to B5, the IC50 turned out to be 0.069 nM.

Molecule B6 showed an IC50 of 0.525 nM.

Molecule B7 gave an IC50 of 0.121 nM. Against the preceding molecule, the IC50 is about 4.3-fold lower.
